For orientation: EC50 (read off the curve) means the concentration that produces a half-maximal response.

Experiment [1] deals with T1, SARS-CoV-2 D614G spike on infected cells (SARS-CoV-2, UniProt P0DTC2 14-1273).
T1 construct: whole, on cells
As to the kind of experiment: flow cytometry, infected cells, % infected cells bound.

In experiment [2] the target is T1, SARS-CoV-2 D614G spike on infected cells. As to the kind of experiment: flow cytometry on infected Vero E6 cells. In general terms: A flow cytometer gives signals particle by particle.
For another experiment, the target named is T2, S2hlx-Ex6.
T2 construct: backbone grafting design
T2 chain: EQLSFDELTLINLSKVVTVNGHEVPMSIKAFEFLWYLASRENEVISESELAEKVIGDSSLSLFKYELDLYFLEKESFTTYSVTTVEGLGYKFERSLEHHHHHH
In words: ELISA, coated antigen, mAb titrated. (In general: ELISA stands for enzyme-linked immunosorbent assay.)

B1: DH1498 (antibody, V domains shown)
VH: QVQLQESGPGLVKPSETLSLTCAVSGGSVSSDTYYWSWIRQPPGKGLEWIGYIYNSGSTNYNPSLKSRVTISVDTSKSQFSLNLGSVTAADTAVYYCAREGAGTYPPKNDAFDIWGQGTLVTVSS
VL: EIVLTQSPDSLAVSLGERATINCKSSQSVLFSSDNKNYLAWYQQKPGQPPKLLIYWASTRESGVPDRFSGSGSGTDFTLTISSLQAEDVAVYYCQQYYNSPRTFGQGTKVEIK
Consider B1, for which the binding result in experiment [1] is listed as “no binding (tested: 50 µg/mL)”.

B2: DH1501.1 (antibody, V domains shown)
VH: EVQLVESGAEVKKPGASVRVSCKASGFTFTDHYMHWVRQAPGQGLEWMGLINPTGVNTFYAQNFRGRVTMTRDTSTKTDYLEVRSLTSQDTAMYYCARMSRYGAFDIWGQGTMVTVSL
VL: EIVLTQSPGTLSLSPGERATLSCRASQSVGSGYLAWYQQKPGQAPRLLIYGASVRATGIPDRFSGSGSGTDFSLTINRVEPEDFAMYYCQNYGSSPPRYTFGQGTKLEIK
B2: in experiment [2], the binding result is given as “binds”.

B3: S2P6 mAb (antibody, V domains shown)
VH: EVQLVQSGAEVKKPGASVKVSCKASGYTFTSQYMHWVRQAPGQGLEWIGIINPSGVHTSYAQKFQGRVTLTRDTSTSTLYMELSSLRSEDTAVYYCARGSPKGAFDYWGQGTLVTVSS
VL: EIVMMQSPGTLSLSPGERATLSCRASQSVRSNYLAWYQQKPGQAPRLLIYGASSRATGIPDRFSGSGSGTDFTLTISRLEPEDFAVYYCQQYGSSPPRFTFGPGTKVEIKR
As for B3, the “EC50 (read off the curve)” value with S2hlx-Ex6 is ~0.1 µg/mL.

B4: DH1501.2 (antibody, V domains shown)
VH: EVQLVESGAEVKKPGASVRLSCKASGDTFNNKYVHWVRQAPGQGLEWMGLINPSGSGTAFAQKFQGRVSMTRDTSTRTVYLGLTSLTYEDTAVYYCARMSRAGTFDIWDQGTMVTVSS
VL: EIVLTQSPGTLSLSPGDRATLSCRASENVGTSYLAWYQQKPGQAPRLLISGTSSRATGVPDRFSGSGSGRDFTLTISRLEPEDFAVYYCQQYGSSPPRYTFGQGTKLDMK
Consider B4, for which, in experiment [2], the binding result is “binds”.

For the origin of these results see patent US20240285753A1 (DUKE UNIVERSITY, published 2024).
